The record followed here is the supplement of paper PMC10567573.

B1: KLHL14 (parent)
chain: WLYCYDPVMDVWARKQDMNTKRAI
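Further: lentivirally expressed fusions sorted by FACS into six bins by GFP to DsRed ratio, PSI derived from sequencing read proportions per bin multiplied by bin number.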

The variants in this data set derive from B1. Briefly: protein stability index of a GFP-peptide fusion (GPS, HEK-293T) (PSI 1-6); higher = more stable. Particulars: c terminus: a fixed tail appended.
With WLYCYDPVMDVKARKQDMNTKRAI [W12K], the protein stability index amounted to 2.03.

WLYCYDPVMDVMARKQDMNTKRAI [W12M]: the protein stability index was found to be 1.77. As to WLYCLDPVMDVWARKQDMNTKRAI [Y5L], the protein stability index was determined as 2.24. As for WLYCWDPVMDVWARKQDMNTKRAI [Y5W], the protein stability index is 1.44.

As for WLYCGDPVMDVWARKQDMNTKRAI [Y5G], the protein stability index is 2.43. With WLYCVDPVMDVWARKQDMNTKRAI [Y5V] the figure was 1.98; with WLYCCDPVMDVWARKQDMNTKRAI [Y5C], 2.25; with WLYCHDPVMDVWARKQDMNTKRAI [Y5H], 1.91.

On to WLYCKDPVMDVWARKQDMNTKRAI [Y5K], for which the protein stability index stood at 2.46. With WLYCEDPVMDVWARKQDMNTKRAI [Y5E] the figure was 2.23. As for WLYCNDPVMDVWARKQDMNTKRAI [Y5N], the protein stability index amounted to 2.08. As for WLYCYDPVMDVWARKVDMNTKRAI [Q16V], the protein stability index turned out to be 2.29.

Take WLYCYDPVMDVWARKLDMNTKRAI [Q16L]: the protein stability index is 1.72. With WLYCYDPVMDVWARKIDMNTKRAI [Q16I] the figure was 1.81; with WLYCYDPVMDVWARKFDMNTKRAI [Q16F], 1.85; with WLYCYDPVMDVWARKWDMNTKRAI [Q16W], 2.7. With WLYCYDPVMDVWARKGDMNTKRAI [Q16G] the figure was 2.25; with WLYCYDPVMDVWARKKDMNTKRAI [Q16K], 1.7; with WLYCYDPVMDVWARKPDMNTKRAI [Q16P], 1.85. With WTYCYDPVMDVWARKQDMNTKRAI [L2T] the figure was 2.11; with WMYCYDPVMDVWARKQDMNTKRAI [L2M], 1.9.

With WHYCYDPVMDVWARKQDMNTKRAI [L2H], the protein stability index was determined as 2.35. For the variant WSYCYDPVMDVWARKQDMNTKRAI [L2S], the protein stability index amounted to 2.39.

WDYCYDPVMDVWARKQDMNTKRAI [L2D]: the protein stability index stood at 2.52. With WQYCYDPVMDVWARKQDMNTKRAI [L2Q] the figure was 2.55; with WYYCYDPVMDVWARKQDMNTKRAI [L2Y], 2.52; with WPYCYDPVMDVWARKQDMNTKRAI [L2P], 2.13. Regarding WGYCYDPVMDVWARKQDMNTKRAI [L2G], the protein stability index came to 2.29. Take WCYCYDPVMDVWARKQDMNTKRAI [L2C]: the protein stability index worked out at 2.18. With WEYCYDPVMDVWARKQDMNTKRAI [L2E] the figure was 2.61; with WLYCYTPVMDVWARKQDMNTKRAI [D6T], 2.47. With WLYCYRPVMDVWARKQDMNTKRAI [D6R] the figure was 1.4.

For WLYCYMPVMDVWARKQDMNTKRAI [D6M], the protein stability index was determined as 2.33. With WLYCYVPVMDVWARKQDMNTKRAI [D6V] the figure was 2.23. With WLYCYGPVMDVWARKQDMNTKRAI [D6G] the figure was 2.9; with WLYCYNPVMDVWARKQDMNTKRAI [D6N], 1.78. As to WLYCYKPVMDVWARKQDMNTKRAI [D6K], the protein stability index was 2.11. With WLYCYFPVMDVWARKQDMNTKRAI [D6F] the figure was 2.99; with WLYCYPPVMDVWARKQDMNTKRAI [D6P], 1.84.

With WLYCYCPVMDVWARKQDMNTKRAI [D6C], the protein stability index came out at 2.14. With WLFCYDPVMDVWARKQDMNTKRAI [Y3F] the figure was 1.65. As to WLDCYDPVMDVWARKQDMNTKRAI [Y3D], the protein stability index was 2.44. With WLICYDPVMDVWARKQDMNTKRAI [Y3I], the protein stability index came out at 2.06.

For the variant WLQCYDPVMDVWARKQDMNTKRAI [Y3Q], the protein stability index is 1.97. With WLGCYDPVMDVWARKQDMNTKRAI [Y3G] the figure was 2.01; with WLKCYDPVMDVWARKQDMNTKRAI [Y3K], 2.09.

Regarding WLVCYDPVMDVWARKQDMNTKRAI [Y3V], the protein stability index is 2.86. With WLTCYDPVMDVWARKQDMNTKRAI [Y3T] the figure was 2.36. For WLYCYDPVMDVWARKQDMNTFRAI [K21F], the protein stability index is 1.86. As to WLYCYDPVMDVWARKQDMNTCRAI [K21C], the protein stability index amounted to 2.23. For WLYCYDPVMDVWARKQDMNTERAI [K21E], the protein stability index was 1.91. As for WLYCYDPVMDVWARKQDMNTHRAI [K21H], the protein stability index was 1.94. With WLYCYDPVMDVWARKQDMNTSRAI [K21S], the protein stability index came to 1.91. With WLYCYDPVMDVWARKQDMNTMRAI [K21M], the protein stability index came to 2.08. With WLYCYDPVMDVWARKQDMNTGRAI [K21G] the figure was 2.61; with WLYCYDPVMDVWARKQDMNTIRAI [K21I], 1.71.

WLYCYDPVMDVWARKQDMNTNRAI [K21N]: the protein stability index came to 1.81. As for WLYFYDPVMDVWARKQDMNTKRAI [C4F], the protein stability index is 1.94. Turning to WLYYYDPVMDVWARKQDMNTKRAI [C4Y], the protein stability index worked out at 2.13. As to WLYVYDPVMDVWARKQDMNTKRAI [C4V], the protein stability index was 2.08. Take WLYMYDPVMDVWARKQDMNTKRAI [C4M]: the protein stability index was 1.89. On to WLYSYDPVMDVWARKQDMNTKRAI [C4S], for which the protein stability index came out at 2.14. With WLYQYDPVMDVWARKQDMNTKRAI [C4Q] the figure was 2.31; with WLYPYDPVMDVWARKQDMNTKRAI [C4P], 2.51. For the variant WLYRYDPVMDVWARKQDMNTKRAI [C4R], the protein stability index was found to be 1.63.

On to WLYCYDPVMDVWARKQDDNTKRAI [M18D], for which the protein stability index was found to be 3.05.

Regarding WLYCYDPVMDVWARKQDENTKRAI [M18E], the protein stability index came out at 2.4. With WLYCYDPVMDVWARKQDPNTKRAI [M18P] the figure was 1.98. With WLYCYDPVMDVWARKQDVNTKRAI [M18V] the figure was 2.19; with WLYCYDPVMDVWARKQDWNTKRAI [M18W], 2.86; with WLYCYDPVMDVWARKQDFNTKRAI [M18F], 2.56. With WLYCYDPVMDVWARKQDCNTKRAI [M18C] the figure was 1.86. For the variant WLYCYDPVMDVWARKQDKNTKRAI [M18K], the protein stability index worked out at 2.1. With WLYCYDPVMDVWARKQDSNTKRAI [M18S] the figure was 2.39; with WLYCYDPVMDVWARKQDHNTKRAI [M18H], 2.55; with WLYCYDPVMDVWARKQDMNTKRWI [A23W], 1.37. On to WLYCYDPVMDVWARKQDMNTKRDI [A23D], for which the protein stability index is 2.22.

In the case of WLYCYDPVMDVWARKQDMNTKRKI [A23K], the protein stability index stood at 1.97. On to WLYCYDPVMDVWARKQDMNTKRQI [A23Q], for which the protein stability index amounted to 2.11. With WLYCYDPVMDVWARKQDMNTKRMI [A23M] the figure was 2.22; with WLYCYDPVMDVWARKQDMNTKRGI [A23G], 1.51. With WLYCYDPVMDVWARKQDMNTKRCI [A23C] the figure was 1.78. As for WLYCYDPVMDVWARKQDMNTKRYI [A23Y], the protein stability index came out at 1.92. With WLYCYDPAMDVWARKQDMNTKRAI [V8A] the figure was 1.76. With WLYCYDPWMDVWARKQDMNTKRAI [V8W] the figure was 1.95.

Turning to WLYCYDPSMDVWARKQDMNTKRAI [V8S], the protein stability index came out at 1.89.

In the case of WLYCYDPRMDVWARKQDMNTKRAI [V8R], the protein stability index stood at 1.92. As for WLYCYDPMMDVWARKQDMNTKRAI [V8M], the protein stability index turned out to be 2.26.

Regarding WLYCYDPKMDVWARKQDMNTKRAI [V8K], the protein stability index amounted to 1.88.

Consider WLYCYDPTMDVWARKQDMNTKRAI [V8T], for which the protein stability index came out at 2.45. Take WLYCYDPEMDVWARKQDMNTKRAI [V8E]: the protein stability index was determined as 2.17. With WLYCYDPHMDVWARKQDMNTKRAI [V8H] the figure was 2.34; with WLYCYDPIMDVWARKQDMNTKRAI [V8I], 2.03; with WLYCYDPNMDVWARKQDMNTKRAI [V8N], 1.75.
